The chains are these.
B1: Nibrin (Homo sapiens), O60934 (parent)
chain: MWKLLPAAGPAGGEPYRLLTGVEYVVGRKNCAILIENDQSISRNHAVLTANFSVTNLSQTDEIPVLTLKDNSKYGTFVNEEKMQNGFSRTLKSGDGITFGVFGSKFRIEYEPLVACSSCLDVSGKTALNQAILQLGGFTVNNWTEECTHLVMVSVKVTIKTICALICGRPIVKPEYFTEFLKAVESKKQPPQIESFYPPLDEPSIGSKNVDLSGRQERKQIFKGKTFIFLNAKQHKKLSSAVVFGGGEARLITEENEEEHNFFLAPGTCVVDTGITNSQTLIPDCQKKWIQSIMDMLQRQGLRPIPEAEIGLAVIFMTTKNYCDPQGHPSTGLKTTTPGPSLSQGVSVDEKLMPSAPVNTTTYVADTESEQADTWDLSERPKEIKVSKMEQKFRMLSQDAPTVKESCKTSSNNNSMVSNTLAKMRIPNYQLSPTKLPSINKSKDRASQQQQTNSIRNYFQPSTKKRERDEENQEMSSCKSARIETSCSLLEQTQPATPSLWKNKEQHLSENEPVDTNSDNNLFTDTDLKSIVKNSASKSHAAEKLRSNKKREMDDVAIEDEVLEQLFKDTKPELEIDVKVQKQEEDVNVRKRPRMDIETNDTFSDEAVPESSKISQENEIGKKRELKEDSLWSAKEISNNDKLQDDSEMLPKKLLLTEFRSLVIKNSTSRNPSGINDDYGQLKNFKKFKKVTYPGAGKLPHIIGGSDLIAHHARKNTELEEWLRQEMEVQNQHAKEESLADDLFRYNPYLKRRR

Two variants from IntAct's records for PubMed 20368419 can be followed below.

This assay covers variants of B1. The note with it: with pk3cb_human PIK3CB.
On to K653A;L654A;L655A;L656A, for which the “effect of a mutation on the interaction” value is listed as “decreasing interaction”.

As to S661A;L662A;V663A, the “effect of a mutation on the interaction” value is on record as “decreasing interaction”.
